Patent publication EP4342988A1 (Eberhard Karls Universität Tübingen, Medizinische Fakultät, dated 2024)

Assays:
[1] = molecular target: T1, CTCF (CCCTC-binding factor / Transcriptional repressor CTCF) (UniProt P49711 1-727); assay: anti-Flag pull-down of tagged THAP1 from HEK-293 nuclear extract (TAP), Western blot
T1 sequence (looked up): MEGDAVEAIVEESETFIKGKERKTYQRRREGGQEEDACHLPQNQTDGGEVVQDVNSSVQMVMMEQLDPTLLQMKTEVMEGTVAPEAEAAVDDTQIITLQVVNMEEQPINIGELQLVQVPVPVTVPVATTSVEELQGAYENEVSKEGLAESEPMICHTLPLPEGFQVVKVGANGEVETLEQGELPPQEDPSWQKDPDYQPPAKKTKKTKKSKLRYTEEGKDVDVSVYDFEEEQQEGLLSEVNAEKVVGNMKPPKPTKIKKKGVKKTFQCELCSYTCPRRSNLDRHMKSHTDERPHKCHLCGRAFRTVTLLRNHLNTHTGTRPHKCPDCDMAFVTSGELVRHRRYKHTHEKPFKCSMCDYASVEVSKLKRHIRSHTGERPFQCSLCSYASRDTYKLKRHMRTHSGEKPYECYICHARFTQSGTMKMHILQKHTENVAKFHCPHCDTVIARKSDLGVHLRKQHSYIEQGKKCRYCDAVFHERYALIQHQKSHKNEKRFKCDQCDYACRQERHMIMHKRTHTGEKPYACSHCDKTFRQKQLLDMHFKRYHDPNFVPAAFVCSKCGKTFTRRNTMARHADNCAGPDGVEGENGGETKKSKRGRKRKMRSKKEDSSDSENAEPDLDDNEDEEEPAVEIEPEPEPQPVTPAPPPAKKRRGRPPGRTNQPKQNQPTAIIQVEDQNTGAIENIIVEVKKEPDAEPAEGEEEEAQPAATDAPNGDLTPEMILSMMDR

[2] = molecular target: 149 proteins which strongly interact with THAP1; assay: TAP-MS, anti-Flag pull-down of tagged THAP1 against empty vector, LC-MS/MS peak area ratios

B1: Strep/FLAG tagged THAP1 protein (other, human, UniProt Q9NVV9 1-213, looked up)
chain: MVQSCSAYGCKNRYDKDKPVSFHKFPLTRPSLCKEWEAAVRRKNFKPTKYSSICSEHFTPDCFKRECNNKLLKENAVPTIFLCTEPHDKKEDLLEPQEQLPPPPLPPPVSQVDAAIGLLMPPLQTPVNLSVFCDHNYTVEDTMHQRKRIHQLEQQVEKLRKKLKTAQQRCRRQERQLEKLKEVVHFQKEKDDVSERGYVILPNDYFEIVEVPA
notes: Bait of the TAP-MS pull-down from nuclear extract of HEK-293 cells on anti-Flag M2 agarose, with benzonase added; also called wild-type THAP1; hTHAP1; not shown: Strep/FLAG tag
[1]
  binding result: binds
[2]
  log2 (TAP-MS ratio): 15 log2
